The source of these data is paper PMC7515635 (eLife, 2020).

Values joined by “and” are separate entries in the source; they are usually repeats but may differ in a detail not shown here. Equal values may be shown once.

To fix the notation:
T1: HIS6-ATG8A (Arabidopsis thaliana, UniProt Q8LEM4 1-117)
T1 construct: ATG8A, Arabidopsis thaliana; source: E. coli Rosetta2(DE3)pLysS, purified (HisTrap, ion exchange, SEC)
T1 sequence (looked up): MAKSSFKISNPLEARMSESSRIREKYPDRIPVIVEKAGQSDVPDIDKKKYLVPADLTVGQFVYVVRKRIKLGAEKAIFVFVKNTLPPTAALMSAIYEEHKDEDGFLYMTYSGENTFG

B1: AtC53-IDR (purified) (domain or fragment, Arabidopsis thaliana, UniProt Q9FG23 264-341, looked up)
chain: ANGTDAAADSIDWDITVETPEIDWDVSMVEEVDSGNDLGSYEIVNASDIPENSPFKVEESQGLEVDVSEISWDVSVET
notes: intrinsically disordered region of Arabidopsis C53; The expected mass (about 80 residues) is too small for 239-372, the limits of MBP-AtC53^IDR; source: E. coli Rosetta2(DE3)pLysS, purified
B2: At-sAIM peptide (peptide)
peptide: EPLDFDIDWDLEEEM
notes: peptide with a shuffled AIM (IDWD) in the frame of the AIM wt peptide
B3: GST-GABARAP (natural protein, human, UniProt O95166 1-117, looked up)
chain: MKFVYKEEHPFEKRRSEGEKIRKKYPDRVPVIVEKAPKARIGDLDKKKYLVPSDLTVGQFYFLIRKRIHLRAEDALFFFVNNVIPPTSATMGQLYQEHHEEDFFLYIAYSDESVYGL
notes: GABARAP, human ATG8 isoform; printed MW of GST-GABARAP 42458.87 Da; source: E. coli recombinant expression; bacterial lysate (pull-downs), recombinant protein (SPR); not shown: GST, N-terminal, kept
B4: GST-ATG8A (natural protein, Arabidopsis thaliana, UniProt Q8LEM4 1-117, looked up)
chain: T1 sequence (looked up)
notes: ATG8A, Arabidopsis thaliana; printed MW of GST-ATG8A 42366.85 Da; also called AtATG8; source: E. coli recombinant expression; bacterial lysate (pull-downs), recombinant protein (SPR, peptide array); not shown: GST, N-terminal, kept
B5: HIS6-AtC53 (natural protein)
chain: not shown
notes: C53, Arabidopsis thaliana; Monomeric by native MS; source: E. coli Rosetta2(DE3)pLysS, purified (HisTrap, ion exchange, SEC)
B6: Hs-sAIM peptide (peptide)
peptide: EPLDFDIDWGLEEEM
notes: peptide with a shuffled AIM (IDWG) in the frame of the AIM wt peptide; also called Hs-sAIMC53

What all share (conditions): both partners purified
In assay [1] the target is T1, HIS6-ATG8A. The assay can be described thus: native MS; proteins exchanged into ammonium acetate, nanoelectrospray, Synapt G2Si; C53 1-5 µM or IDR 2.5 µM with 5-20 µM ATG8A or GABARAP.
Assay [2] addresses T1, HIS6-ATG8A. Kind of assay: ITC; 25°C, 50 mM sodium phosphate pH 7.0, 100 mM NaCl; cell 40 µM GABARAP or ATG8A, syringe 600 µM peptide or 250 µM IDR; one-set-of-sites model.
Another assay has as its target T2, HIS6-HsC53 (human, UniProt Q96JB5 1-506).
T2 construct: C53 (CDK5RAP3), human; Monomeric by native MS; source: E. coli Rosetta2(DE3)pLysS, purified (HisTrap, ion exchange, SEC)
Kind of assay: SPR; competition, apparent; GST-GABARAP or GST-ATG8A captured; increasing AIM wt peptide premixed with 10 µM HsC53 or AtC53; 25°C, 50 mM sodium phosphate pH 7.0, 100 mM NaCl, 0.05% Tween-20, 0.1% BSA.

The assay “HIS6-AtC53” addresses B5. Described as above.
In a further assay the target is T3, HIS6-GABARAP (human, UniProt O95166 1-117).
T3 construct: GABARAP, human ATG8 isoform; source: E. coli Rosetta2(DE3)pLysS, purified (HisTrap, ion exchange, SEC)
The assay can be described thus: ITC; 25°C, 50 mM sodium phosphate pH 7.0, 100 mM NaCl; cell 40 µM GABARAP or ATG8A, syringe 600 µM peptide or 250 µM IDR; one-set-of-sites model.

HIS6-AtC53, sequence (Q9FG23 whole entry): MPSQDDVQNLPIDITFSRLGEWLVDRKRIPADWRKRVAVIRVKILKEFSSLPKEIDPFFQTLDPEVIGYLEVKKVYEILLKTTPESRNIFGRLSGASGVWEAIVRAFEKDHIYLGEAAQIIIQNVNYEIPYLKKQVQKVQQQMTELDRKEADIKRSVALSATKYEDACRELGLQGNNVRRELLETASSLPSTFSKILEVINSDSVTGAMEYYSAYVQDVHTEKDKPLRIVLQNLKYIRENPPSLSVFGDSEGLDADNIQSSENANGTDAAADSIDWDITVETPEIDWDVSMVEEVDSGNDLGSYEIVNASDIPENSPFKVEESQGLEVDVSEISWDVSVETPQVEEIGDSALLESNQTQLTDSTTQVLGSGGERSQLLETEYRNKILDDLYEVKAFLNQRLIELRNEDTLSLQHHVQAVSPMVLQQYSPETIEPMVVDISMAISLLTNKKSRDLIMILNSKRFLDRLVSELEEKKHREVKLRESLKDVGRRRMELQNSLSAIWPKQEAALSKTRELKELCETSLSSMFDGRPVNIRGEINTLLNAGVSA
T2 sequence (Q96JB5 whole entry): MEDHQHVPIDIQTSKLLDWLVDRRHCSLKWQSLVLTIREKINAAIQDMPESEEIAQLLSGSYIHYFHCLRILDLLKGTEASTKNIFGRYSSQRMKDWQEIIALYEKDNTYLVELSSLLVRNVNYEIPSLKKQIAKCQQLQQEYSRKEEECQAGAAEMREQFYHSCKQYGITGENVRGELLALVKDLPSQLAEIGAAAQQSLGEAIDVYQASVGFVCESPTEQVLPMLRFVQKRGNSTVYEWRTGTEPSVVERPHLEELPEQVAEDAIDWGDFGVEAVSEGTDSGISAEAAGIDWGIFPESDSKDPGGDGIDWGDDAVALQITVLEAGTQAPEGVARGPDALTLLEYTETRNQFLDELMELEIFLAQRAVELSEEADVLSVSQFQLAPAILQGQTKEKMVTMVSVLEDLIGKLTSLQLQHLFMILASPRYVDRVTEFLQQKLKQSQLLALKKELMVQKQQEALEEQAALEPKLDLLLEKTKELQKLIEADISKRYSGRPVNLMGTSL

In the case of B1, the “stoichiometry N” value in the assay with HIS6-ATG8A [1] was 1 ATG8A per AtC53-IDR and 2 ATG8A per AtC53-IDR and 3 ATG8A per AtC53-IDR.
With B2, in the assay with HIS6-ATG8A [2], the binding result was “binds”.
In the case of B3, the binding result with HIS6-HsC53 is on record as “binds”.
B4: in the assay with HIS6-AtC53, the binding result is recorded as “binds”.
With B5, the “stoichiometry N” value with HIS6-ATG8A [1] was 1 ATG8A per AtC53 and 2 ATG8A per AtC53.
With B6, the binding result with HIS6-GABARAP is “binds”.
